Data from paper PMC4394352.

Target: PP1G(7–300) (mouse) (UniProt P63087)

## eIF2a^P (1–185) R66E; K86E double mutant (domain or fragment)
  dephosphorylation as a substrate of the PPP1R15B-MBP-PP1-actin ternary complex, against wildtype eIF2a^P (Figure 8B): > 10 fold
  dephosphorylation as a substrate of the PPP1R15B-MBP-PP1 binary complex, against wildtype eIF2a^P (Figure 8B): 2 fold
